Molecular target: the molecule itself
Assay: SEC

B1: full-length WT HIV-1 integrase (IN) (enzyme)
chain: FLDGIDKAQEEHEKYHSNWRAMASDFNLPPVVAKEIVASCDKCQLKGEAMHGQVDCSPGIWQLDCTHLEGKVILVAVHVASGYIEAEVIPAETGQETAYFLLKLAGRWPVKTVHTDNGSNFTSTTVKAACWWAGIKQEFGIPYNPQSQGVIESMNKELKKIIGQVRDQAEHLKTAVQMAVFIHNFKRKGGIGGYSAGERIVDIIATDIQTKELQKQITKIQNFRVYYRDSRDPVWKGPAKLLWKGEGAVVIQDNSDIKVVPRRKAKIIRDYGKQMAGDDCVASRQDED
Does B1 bind?
Result: binds
